In paper PMC9949482 (2021):

Key:
GRIP-1 [1] = target: T1, GRIP-1 (Homo sapiens, UniProt Q15596); assay: thermal shift
GRIP-1 [2] = target: T1, GRIP-1; assay: thermal shift, van't Hoff to 25 °C

T1 sequence (Q15596 2-1464): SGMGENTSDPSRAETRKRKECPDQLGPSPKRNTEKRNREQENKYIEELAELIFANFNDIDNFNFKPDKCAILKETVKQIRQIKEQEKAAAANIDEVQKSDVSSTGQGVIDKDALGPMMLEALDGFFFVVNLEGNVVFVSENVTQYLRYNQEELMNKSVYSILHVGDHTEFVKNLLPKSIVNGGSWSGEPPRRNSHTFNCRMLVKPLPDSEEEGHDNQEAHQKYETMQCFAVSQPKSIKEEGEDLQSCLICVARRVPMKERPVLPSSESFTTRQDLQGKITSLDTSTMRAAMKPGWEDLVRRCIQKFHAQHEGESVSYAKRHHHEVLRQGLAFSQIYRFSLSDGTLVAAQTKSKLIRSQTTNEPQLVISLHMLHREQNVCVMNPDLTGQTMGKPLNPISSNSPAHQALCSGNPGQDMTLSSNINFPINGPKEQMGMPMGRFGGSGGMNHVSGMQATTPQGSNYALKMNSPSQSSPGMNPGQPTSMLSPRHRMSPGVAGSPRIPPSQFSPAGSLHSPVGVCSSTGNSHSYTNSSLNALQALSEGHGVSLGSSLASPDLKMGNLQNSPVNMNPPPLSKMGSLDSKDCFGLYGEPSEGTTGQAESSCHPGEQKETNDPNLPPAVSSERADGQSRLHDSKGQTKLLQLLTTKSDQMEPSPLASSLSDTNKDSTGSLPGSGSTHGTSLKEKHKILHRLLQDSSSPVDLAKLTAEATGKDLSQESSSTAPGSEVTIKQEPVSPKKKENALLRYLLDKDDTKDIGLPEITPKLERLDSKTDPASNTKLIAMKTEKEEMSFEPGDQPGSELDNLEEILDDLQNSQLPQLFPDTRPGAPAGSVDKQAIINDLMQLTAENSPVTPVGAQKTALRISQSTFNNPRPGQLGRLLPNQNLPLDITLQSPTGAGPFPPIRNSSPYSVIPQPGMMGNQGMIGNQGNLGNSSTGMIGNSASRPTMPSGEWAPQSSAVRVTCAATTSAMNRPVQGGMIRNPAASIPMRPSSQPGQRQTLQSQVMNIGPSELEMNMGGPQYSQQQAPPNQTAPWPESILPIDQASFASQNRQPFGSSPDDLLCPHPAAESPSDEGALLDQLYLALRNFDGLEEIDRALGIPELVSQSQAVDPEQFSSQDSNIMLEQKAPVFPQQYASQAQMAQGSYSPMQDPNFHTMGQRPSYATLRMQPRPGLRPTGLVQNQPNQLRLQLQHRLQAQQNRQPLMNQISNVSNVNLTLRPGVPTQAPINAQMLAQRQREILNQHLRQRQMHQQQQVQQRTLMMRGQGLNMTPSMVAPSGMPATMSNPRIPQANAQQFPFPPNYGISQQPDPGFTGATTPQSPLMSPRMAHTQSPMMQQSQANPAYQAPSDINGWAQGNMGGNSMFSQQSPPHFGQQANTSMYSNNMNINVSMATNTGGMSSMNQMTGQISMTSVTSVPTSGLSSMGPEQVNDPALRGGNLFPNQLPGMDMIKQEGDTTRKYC

Row | Binder | Kd (GRIP-1 [1]) [µM] | Kd (GRIP-1 [2]) [µM]
1 | RXRα LBD (protein, UAB111) NEDMPVERILEAELAVEPKTETYVEANMGLNPSSPNDPVTNICQAADKQLFTLVEWAKRIPHFSELPLDDQVILLRAGWNELLIASFSHRSIAVKDGILLATGLHVHRNSAHSAGVGAIFDRVLTELVSKMRDMQMDKTELGCLRAIVLFNPDSKGLSNPAEVEALREKVYASLEAYCKHKYPEQPGRFAKLLLRLPALRSIGLKCLEHLFFFKLIGDTPIDTFLMEMLEAP | 24 | 1.8
2 | RXRα LBD (protein, UAB30) NEDMPVERILEAELAVEPKTETYVEANMGLNPSSPNDPVTNICQAADKQLFTLVEWAKRIPHFSELPLDDQVILLRAGWNELLIASFSHRSIAVKDGILLATGLHVHRNSAHSAGVGAIFDRVLTELVSKMRDMQMDKTELGCLRAIVLFNPDSKGLSNPAEVEALREKVYASLEAYCKHKYPEQPGRFAKLLLRLPALRSIGLKCLEHLFFFKLIGDTPIDTFLMEMLEAP | 22 | 0.74
3 | RXRα LBD (protein, UAB110) NEDMPVERILEAELAVEPKTETYVEANMGLNPSSPNDPVTNICQAADKQLFTLVEWAKRIPHFSELPLDDQVILLRAGWNELLIASFSHRSIAVKDGILLATGLHVHRNSAHSAGVGAIFDRVLTELVSKMRDMQMDKTELGCLRAIVLFNPDSKGLSNPAEVEALREKVYASLEAYCKHKYPEQPGRFAKLLLRLPALRSIGLKCLEHLFFFKLIGDTPIDTFLMEMLEAP | 26 | 1.5
